Measured values reported in US20010043931A1, “Human respiratory syncytial virus” (Whitehead Institute for Biomedical Research, priority 1999, published 2001).

T1: HRSV-N51 peptide (residues 157-207 of HRSV F0) (human respiratory syncytial virus …)
T1 construct: Made by proteinase K trimming of the HRSV-N57/C45 complex
T1 peptide: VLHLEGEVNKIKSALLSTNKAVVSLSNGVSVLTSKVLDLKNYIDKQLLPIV

B1: HRSV-C39 peptide (residues 482-520 of HRSV F0) (peptide)
peptide: VFPSDEFDASISQVNEKINQSLAFIRKSDELLHNVNAGK
notes: Made by proteinase K trimming of the HRSV-N57/C45 complex

Columns and labels:
[1] = Thermal denaturation followed by circular dichroism (CD) spectroscopy; type: physicochemical; details: at 10 μM in PBS
Method: CD spectra were measured at protein concentration 10 μM in PBS buffer using an AVIV 62 DS spectrometer (Aviv Associates, Lakewood, N.J.), as described (Fass, D. & Kim, P. S., Curr. Biol., 5:1377-1383 (1995).

[2] = biological target: T1, HRSV-N51 peptide (residues 157-207 of …); experiment: complex left after proteinase K digestion of HRSV-N57/C45; CD thermal melt

Molecule | apparent Tm [1] | binding result [2]
HRSV-C45: C-terminal trypsin fragment of recRSV-1, residues 476-520 of HRSV F0 (SEQ ID NO.: 2) (NFYDPLVFPSDEFDASISQVNEKINQSLAFIRKSDELLHNVNAGK) | does not show a thermal unfolding transition | –
HRSV-N57: N-terminal trypsin fragment of recRSV-1, residues 153-209 of HRSV F0 (SEQ ID NO.: 1) (AVSKVLHLEGEVNKIKSALLSTNKAVVSLSNGVSVLTSKVLDLKNYIDKQLLPIVNK) | 40-50 °C | –
B1 | – | binds
